Series [1] concerns TtSmtB (Thermus thermophilus HB27). Briefly: EMSA. Particulars: cooperative, EMSA as in Fiorentino et al., 2007 (buffer not given here), 0-15 uM protein, 1 nM probe in the competition assay, footprinting in binding buffer, DNase I 1 min ….
The target of series [2] is T1, TtSmtB (Thermus thermophilus HB27) (UniProt Q72KG0).
T1 sequence: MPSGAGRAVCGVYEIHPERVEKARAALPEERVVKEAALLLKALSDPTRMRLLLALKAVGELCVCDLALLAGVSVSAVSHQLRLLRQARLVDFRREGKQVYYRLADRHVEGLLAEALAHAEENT
In words: EMSA. Particulars: EMSA as in Fiorentino et al., 2007 (buffer not given here), 0-15 uM protein, 1 nM probe in the competition assay; footprinting in binding buffer, DNase I 1 min ….

In series [3] the target is T1, TtSmtB (Thermus thermophilus HB27). Briefly: DNase I footprinting. Particulars: EMSA as in Fiorentino et al., 2007 (buffer not given here), 0-15 uM protein, 1 nM probe in the competition assay, DNase I 1 min ….
Series [4] has the same target. In words: competition. The note with it: EMSA as in Fiorentino et al., 2007 (buffer not given here), 0-15 uM protein, 1 nM probe in the competition assay; footprinting in binding buffer, DNase I 1 min ….

On to 0354p (TTC0354 promoter), for which, in series [1] (apparent, Hill fit), the Kd is 1.4 µM.
In the case of “AGAGGACGAGGACCCGCATCCTCCAAAGCCTAGCCCCCCTTCGGTCAGGGGGAGATCATGCGCTCAAGCTGGGCCACC (double strand) [TtarsCp (TtarsC promoter)]”, the binding result in series [2] is given as “binds”.
As to “CGCCTCGCCGACCGGCACGTGGAGGGCCTGTTGGCGGAGGCCCTGGCCCACGCGGAAGAAAACACTTGACCAGTTGCTCAAATGATGCTACCCTGGGGGCATGAAGGCTCCCAGAGTGCGCGTCTTCCGGGTAGAGGGCATGG (double strand) [0354p (TTC0354 promoter)]”, the binding entry in series [3] and in series [4] was “binds” each time. The Kd in series [2] was 1.4 µM.
Substance “CTCCTTGACCACCCTCTCCTCGGGCAGGGCGGCCCGGGCCTTCTCCACCCTTTCCGGGTGGATCTCGTAGACCCCGCAGACCGCCCTACCAGCCCCGCTTGGCAAGCCTTTCCTCCTCCTTGAGCTGGTCCAGGTTGATGCCCACCATG (double strand) [TtsmtBp (TtsmtB promoter)]” yielded a Kd in series [2] of 5 µM.
TtsmtBp (TtsmtB promoter) displayed a Kd in series [1] (multiple complexes) of 5 µM.

The values are drawn from publication PMC5658604.
